According to paper PMC5858577:

Molecular target: VEGF (human recombinant VEGF165 in the cell experiments) (human, UniProt P15692-4 27-191)
Test: fluorescence recovery by displacement from gold nanorod

B1: gapmer aptamer probe (XNA)
DNA: CAATTGGGCCCGTCCGTATGGTGGGT
modifications: LNA monomers at both ends, DNA in the middle; exact positions only in Fig. 1b/Supplementary Table 1
binding result: binds
